Measured values published in publication PMC7035113 (Nature, 2020).

T1: SA2-SCC1 complex (SA2 80-1060 in complex with SCC1 281-420) (human | , UniProt Q8N3U4;O60216)
T1 sequence 1: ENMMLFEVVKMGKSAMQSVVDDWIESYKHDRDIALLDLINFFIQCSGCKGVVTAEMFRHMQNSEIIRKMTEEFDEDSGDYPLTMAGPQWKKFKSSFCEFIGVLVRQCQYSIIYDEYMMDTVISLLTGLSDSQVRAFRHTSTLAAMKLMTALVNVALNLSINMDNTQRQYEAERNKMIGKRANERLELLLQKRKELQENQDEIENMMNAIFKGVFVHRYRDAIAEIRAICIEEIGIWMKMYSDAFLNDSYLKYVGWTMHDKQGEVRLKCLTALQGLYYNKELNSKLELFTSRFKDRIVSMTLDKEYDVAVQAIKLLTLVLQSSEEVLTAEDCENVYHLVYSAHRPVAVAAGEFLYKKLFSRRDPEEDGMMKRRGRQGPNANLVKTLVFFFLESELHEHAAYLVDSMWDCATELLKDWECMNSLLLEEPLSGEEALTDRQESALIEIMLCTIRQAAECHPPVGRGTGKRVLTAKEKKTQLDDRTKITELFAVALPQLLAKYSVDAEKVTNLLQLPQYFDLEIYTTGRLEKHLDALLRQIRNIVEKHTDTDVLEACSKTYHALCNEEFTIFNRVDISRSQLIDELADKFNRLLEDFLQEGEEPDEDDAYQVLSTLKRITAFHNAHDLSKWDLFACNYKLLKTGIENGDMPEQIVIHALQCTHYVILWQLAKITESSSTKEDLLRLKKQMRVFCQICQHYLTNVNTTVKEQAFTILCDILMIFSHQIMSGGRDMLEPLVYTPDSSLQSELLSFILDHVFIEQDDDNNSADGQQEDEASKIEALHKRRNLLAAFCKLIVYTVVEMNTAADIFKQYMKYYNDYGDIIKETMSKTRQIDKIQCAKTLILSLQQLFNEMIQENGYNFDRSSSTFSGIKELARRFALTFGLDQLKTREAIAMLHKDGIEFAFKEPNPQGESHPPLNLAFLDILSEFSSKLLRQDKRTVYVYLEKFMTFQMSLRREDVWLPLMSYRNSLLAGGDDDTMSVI
T1 sequence 2: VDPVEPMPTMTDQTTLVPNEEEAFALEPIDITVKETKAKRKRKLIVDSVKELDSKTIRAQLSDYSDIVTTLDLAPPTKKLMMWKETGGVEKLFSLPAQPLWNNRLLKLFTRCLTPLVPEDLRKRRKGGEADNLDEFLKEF

B1: WAPL peptide 447-462 (third FGF motif only) (peptide)
peptide: NYKIKYFGFDDLSESE
B2: WAPL residues 1-600 (domain or fragment)
chain: MTSRFGKTYSRKGGNGSSKFDEVFSNKRTTLSTKWGETTFMAKLGQKRPNFKPDIQEIPKKPKVEEESTGDPFGFDSDDESLPVSSKNLAQVKCSSYSESSEAAQLEEVTSVLEANSKISHVVVEDTVVSDKCFPLEDTLLGKEKSTNRIVEDDASISSCNKLITSDKVENFHEEHEKNSHHIHKNADDSTKKPNAETTVASEIKETNDTWNSQFGKRPESPSEISPIKGSVRTGLFEWDNDFEDIRSEDCILSLDSDPLLEMKDDDFKNRLENLNEAIEEDIVQSVLRPTNCRTYCRANKTKSSQGASNFDKLMDGTSQALAKANSESSKDGLNQAKKGGVSCGTSFRGTVGRTRDYTVLHPSCLSVCNVTIQDTMERSMDEFTASTPADLGEAGRLRKKADIATSKTTTRFRPSNTKSKKDVKLEFFGFEDHETGGDEGGSGSSNYKIKYFGFDDLSESEDDEDDDCQVERKTSKKRTKTAPSPSLQPPPESNDNSQDSQSGTNNAENLDFTEDLPGVPESVKKPINKQGDKSKENTRKIFSGPKRSPTKAVYNARHWNHPDSEELPGPPVVKPQSVTVRLSSKEPNQKDDGVFKAPA
B3: CTCF array peptide Y226F (position 2) (peptide)
peptide: DVSVFDFEEEQ
B4: SYCP1 array peptide from residue 882 (position 15) (peptide)
peptide: RKMAFEFDINS
B5: SYCP3 array peptide from residue 21 (position 17) (peptide)
peptide: FTRAYDFETED
B6: WAPL array peptide from residue 70 (position 6) (peptide)
peptide: TGDPFGFDSDD
B7: WAPL array peptide from residue 425 (position 7) (peptide)
peptide: KLEFFGFEDHE
B8: WAPL array peptide from residue 450 (position 8) (peptide)
peptide: KIKYFGFDDLS
B9: yeast WAPL array peptide from residue 108 (position 10) (peptide)
peptide: KLSAFNFLDGS

Legend:
[1] = molecular target: T1, SA2-SCC1 complex (SA2 80-1060 in …); test: ITC
[2] = molecular target: T1, SA2-SCC1 complex (SA2 80-1060 in …); test: pull-down
[3] = molecular target: T1, SA2-SCC1 complex (SA2 80-1060 in …); test: peptide or protein array

Row | Binder | Kd [3] | other results
1 | B1 | – | Kd [1]: 78.7 µM; dH [1]: -6.81 kcal/mol; stoichiometry N [1]: 1
2 | B2 | – | binding result [2]: binds
3 | B3 | 1.6 µM | –
4 | B4 | 6.71 µM | –
5 | B5 | 1.96 µM | –
6 | B6 | 5.9 µM | –
7 | B7 | 12.4 µM | –
8 | B8 | 2.17 µM | –
9 | B9 | 10.7 µM | –
